# Measured values published in the RNAGym collection of RNA variant scans (doi:10.1073/pnas.2313332121).
# B1: TPR t1 (parent)
# chain: GACCAAUCUGCCCUCAGAGCUCGAGAACAUCUUCGGAUGCAGAGGAGGCAGGCUUCGGUGGCGCGAUAGCGCCAACGUCCUCAACCUCCAAUGCAUCCCACCACAUGAUGAUGCCUGAAGAGCCUUGGUUUUUUG
# Variants of: B1
# Assay: polymerase ribozyme fitness, log enrichment relative to wild type (log ratio); higher = more active; in vitro selection for triplet polymerase activity
# In short: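 In triplicate, a single round of in vitro selection was run on each mutant library, PCR-built and transcribed, covering one subunit of a heterodimeric triplet polymerase ribozyme. Frozen incubation at −7 °C followed annealing with a biotinylated primer, partner subunit and triplets, and extended constructs were then gel-excised, streptavidin-captured and taken through RT-PCR. Fitness is the logarithm of genotype enrichment over wild-type enrichment, from inverse-variance-weighted replicate averages of Illumina-sequenced inputs and outputs. […] only genotypes with ≥10 input reads and ≥1 read per output were kept.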
row,Variant,polymerase ribozyme fitness (log ratio)
1,C4G C8U C72A U78A U87A,-2.03
2,C12A A43U A46U G71U,-3.4
3,C34A C70G C72G C82G,-6.51
4,C15A C73G C123A,-2.17
5,A37U C62A U92C,-2.86
6,U14C G77C G113A,-5.53
7,A5U G113A G122A G127C,-3.33
8,G45A C70G G110A,-6.64
9,U9G C56G G61U G93C,-3.2
10,C15U A29U,-3.13
11,C11U C49G,-1.44
12,G48U U55G,-0.43
13,G52U G63C,-0.581
14,A29U C56U C123U,-0.0509
15,A5C A46C C56A C102U,-3.74
16,G63C A91G G113A,-2.9
17,A27U U54A C115A,-3.07
18,U30G,-5.83
19,A43C G61U G117A,-3.52
20,G36A C62A,-1.61
21,G39A C89G A90C,-2.4
22,A6G G48U,-0.663
23,U38A G71A U129A,-3.95
24,C89A G135U,-2.26

row,Variant,polymerase ribozyme fitness (log ratio)
1,C64U G65A A105G G113A,-6.73
2,C3A A37U C82U U112C,-0.239
3,U7C G71A,-0.421
4,A2C C86U A90C,-4.21
5,G61A U87A C124A,1.93
6,G36U C102U,-2.93
7,A6U U9G C40G G60U C80U U126C U131A,-3.72
8,C3U C22G,-3.12
9,C72A U81G G120U,-0.653
10,C4U A6U U78G C88U A91U A95U,-3.57
11,C40U C56A A91G,-2.75
12,G61U U92G,-2.97
13,C13A U38G G58U,-2.03
14,G10A C97A G120U,-4.42
15,U7A A18U C22G C72A,-4.55
16,G35U C79U C114U U131C U134G,-5.19
17,C13U G63U C70G C114A G120C,-0.574
18,A29G G77A U78A C123A,-2.27
19,C13U C49U C79A C97G U109A,-7.98
20,C114A A119G,0.218
21,U21A C70A C86U A111C,-5.59
22,G45U G63A U131A,-1.33
23,G69U A74C C104U,0.0316
24,G10C C34U,-5.43

row,Variant,polymerase ribozyme fitness (log ratio)
1,G77C U78C A105G A119G,-1.64
2,C31A U112C,-3.86
3,A27U A83U,-3.7
4,C56A U92G C101G A121G,-4.49
5,G25C G58A C64A A83C G110C,-6.43
6,G63C U87A,-1.59
7,A2G U32C C40G C49A A68G C73U,-5.24
8,A46C U54A A66C U87G G113U,-5.68
9,C8U C22G C64U U112A U125A U130C,-2.33
10,A6C C13U A27U C62A C82A,-4.43
11,G60U A103C U106G U125A,-5.2
12,U9A G39U G48A U109A,-6.15
13,G35A G63A,-3.91
14,C8G C73U C79U,0.882
15,C49G G93U C94A,-3.18
16,A46G C56U,-0.0715
17,C15A C80U,-1.68
18,C8G C11U C22G C72U,-3.41
19,U21G C72U A75U,-1.05
20,G48C A111C,-0.761
21,A5C U32C C53U G57A C85A,-3.78
22,A37U G45C A46C U78A,-2.59
23,A16U A26G C56U C88U C124G,-1.25
24,U14A C124A,-0.31

row,Variant,polymerase ribozyme fitness (log ratio)
1,A43C C72A,-2.05
2,C102A,-1.87
3,C8U C62U C86U C101A,-1.69
4,C15A G61A C85U C98G A105G U109A C124U,-6.62
5,G93A G120A,0.446
6,U7G G10C C72G C82A,-0.707
7,U7G C56U,0.612
8,C8A U59G C72G U133G,-3.35
9,G42U C56A C64U,-2.46
10,A5U A6U U9G C28A C34A G60A A121C,-6.95
11,G52C G117A,-1.64
12,A6U C8G C72U C86G,-0.629
13,A27C C73U,-3.12
14,A16U G45A A90G U96A U112G A118C,-3.03
15,G47C G61U U130A,-2.36
16,C34U G65C C70U G117C A121C,-7.03
17,C8G A29U A68G C88U U125G,-3.26
18,C70U G107U,-4.87
19,C13A A41C C73G,-4.43
20,C13U G51U G60U C97U A119G G127U,-2.62
21,C8G C22G C53U C70U A84C,-3.45
22,A27U C70U,-3.44
23,A2U C12G G63A,-3.14
24,U106A,0.145

row,Variant,polymerase ribozyme fitness (log ratio)
1,C70A A108U C124A,-5.58
2,U87A G127U,-0.745
3,A43G G61U C114A G127C U132A,-3.36
4,A66C C94A C114G G120C,-5.33
5,C3A A5U G60C A91U G127A,-2.45
6,G122U C124G,-0.864
7,U7G A74G,-0.0909
8,C3G C4G C53U G60U G93A,-3.06
9,A18U C70A,-5.29
10,U112G G122A,-1.74
11,C11A C49G G60A G93U,-2.13
12,G10A C11U C89A,-2.04
13,U9G C34U A68G U78C C97U A111U,-6.62
14,G10A G44A A46U G48C,-1.66
15,A16U G17U C124A,-1.9
16,A2G C11U C22G C62U U130A,-4.9
17,C11A G77U,-2.4
18,C28A C49U,-4.87
19,C82U C88A G120U G128A,-1.98
20,G51C C82A,-4.42
21,G63C G120A,0.11
22,C3A C11G,-1.08
23,C22U C86G A100C A121U G135U,-4.77
24,C15U C49U U55G C73U,-1.56

row,Variant,polymerase ribozyme fitness (log ratio)
1,G61A G93C,-0.381
2,C101A U131G,-1.9
3,C8G C40A C98U G127C,-2.67
4,C49G U81C,-3.21
5,G65U C72A,-5.48
6,A18C A111U,-5.16
7,C3G G63U,-2.85
8,C3U A27C G58C C64A G93U C101A G113A C115G,-7.47
9,A2U U9A C11U A18C C20A C31G G77A A83G C97A G113U C124U,-7.17
10,U7G C12U C20A,-1.34
11,G61A U78C C88G,-0.472
12,C12G C64U C73U U131G,-0.0751
13,A43U,-1.2
14,A18C G52A G61A A118G,-2.74
15,C3G C97G,-5.54
16,C49G C88A U96G U125G,-2.28
17,C49G C62G A75G C79U,-3.47
18,U21A U112A,1.06
19,G10C C40G A66U,-2.18
20,C72U C88U,0.0321
21,A46G C56U G110U U116A,-2.84
22,C8A A29U,-1.13
23,G61C G127A U129A,-2.95
24,C8G G113A,0.074

row,Variant,polymerase ribozyme fitness (log ratio)
1,G61A C73A,-0.202
2,G42C G44U U112A,-1.44
3,G23U C56U,-6.5
4,G10A C62U G69A A121U G127U,-1.42
5,A37U C64U,-1.67
6,C49U U92A,-3.99
7,A43C C76U A91C G93C U112C G113U U116C,-6.51
8,G71C C101A A121U U126G,-0.863
9,C11G C12G C49U U55G A91G,-2.61
10,G39U G42C,-2.2
11,C3U A29G G48C C73G C79G C101U,-5.51
12,A37U G77U G93C,-2.05
13,C4A A43G U130C,-2.6
14,U9A C70U C88A C101U U132A,-0.202
15,A2U G10U C115U,-3.43
16,U54A C56A C124A,1.58
17,A37U C53G G63C U116A,-2.98
18,A6G C72G C88U C123A,0.738
19,C72U G113C A118C,-3.51
20,U21C U54A G93A A111C,-0.948
21,C11G C15A U59A C73A U125A,-1.02
22,A6C C72G,-0.682
23,G42U G93C,-2.17
